Publication doi:10.1101/2022.10.09.511515, “DNA segment capture by Smc5/6 holo-complexes” (bioRxiv, 2022)

Target: T1, Smc5(G1054C) (S. cerevisiae, UniProt Q08204 1-1093, G1054C)
T1 construct: Smc5, S. cerevisiae; subunit of the Smc5/6 hexamer; Stood in the assay as a subunit of the purified Smc5/6 hexamer (Smc5, Smc6, Nse1-4); also called Smc5 with the engineered cysteine of the Smc5/Nse4 interface
T1 sequence (looked up): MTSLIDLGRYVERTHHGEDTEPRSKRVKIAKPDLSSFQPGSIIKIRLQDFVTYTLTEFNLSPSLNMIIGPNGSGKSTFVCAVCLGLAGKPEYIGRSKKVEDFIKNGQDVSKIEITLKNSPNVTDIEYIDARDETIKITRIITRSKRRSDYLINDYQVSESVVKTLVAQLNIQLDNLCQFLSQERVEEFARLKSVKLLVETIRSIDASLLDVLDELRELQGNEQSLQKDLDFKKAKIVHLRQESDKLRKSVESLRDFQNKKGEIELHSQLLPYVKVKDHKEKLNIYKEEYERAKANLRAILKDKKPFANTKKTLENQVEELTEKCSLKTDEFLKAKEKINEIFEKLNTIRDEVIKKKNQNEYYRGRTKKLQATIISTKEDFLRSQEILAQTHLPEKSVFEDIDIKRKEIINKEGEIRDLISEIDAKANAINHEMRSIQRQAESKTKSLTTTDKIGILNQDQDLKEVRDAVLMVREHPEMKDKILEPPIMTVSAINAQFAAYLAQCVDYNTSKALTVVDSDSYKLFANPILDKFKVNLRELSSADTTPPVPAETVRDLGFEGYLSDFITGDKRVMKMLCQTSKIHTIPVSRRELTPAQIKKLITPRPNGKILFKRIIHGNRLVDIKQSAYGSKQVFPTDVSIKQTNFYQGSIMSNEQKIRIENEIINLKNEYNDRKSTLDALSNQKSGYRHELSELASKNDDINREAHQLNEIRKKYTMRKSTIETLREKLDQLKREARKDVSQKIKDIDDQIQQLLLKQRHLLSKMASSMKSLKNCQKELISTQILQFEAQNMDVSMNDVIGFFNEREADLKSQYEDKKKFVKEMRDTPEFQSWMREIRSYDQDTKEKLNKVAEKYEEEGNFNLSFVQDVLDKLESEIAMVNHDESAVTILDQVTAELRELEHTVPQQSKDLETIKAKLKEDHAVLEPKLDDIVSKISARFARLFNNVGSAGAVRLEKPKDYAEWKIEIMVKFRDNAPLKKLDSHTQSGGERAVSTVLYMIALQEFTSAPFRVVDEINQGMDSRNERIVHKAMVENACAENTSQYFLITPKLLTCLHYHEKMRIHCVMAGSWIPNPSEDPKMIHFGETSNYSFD
Assay: cross-linking; as a1 with the Nse5/6 dimer added in 1.25 x molar excess (0.625 uM) to the hexamer; SDS-PAGE, Coomassie
Settings: both partners purified

binding result: binds
B1: Nse5/6 dimer (complex, S. cerevisiae)
chain 1: MDGALINSVLYVSPRNGAHYFVELTEKHLLAFEMLNSMCLLENYDHVLLFLECQFGKSHNLAVIPFDIILVLFTLSTLSEYYKEPILRANDPYNTSRETLSRRALKLLQKYLAILKEFDSEQYNLYDLELLRCQFFLAIDTLTPKKQKWGFDRFRRTKSESGVTYRQNASVDPELDQAKTFKNPYRSYISCLEQRNTILGNRLLNLKLNEPGEFINMILWTLSNSLQESTPLFLSSHEIWMPLLEILIDLFSCRQDYFIQHEVAQNVSKSLFVQRLSESPLAVFFESLNTRNFANRFSEYVFLNCDYKLPSDNYATPVHPVYNGENTIVDTYIPTIKCSPLYKSQKSLALRRKLIGSCFKLLLRVPDGHRLITPRIVADDVIQGISRTLASFNDILQFKKFFMTENLSQESYFIPLLAEGTLSEILKDTQECVVILTLVENLSDGVSFCNEVIGLVKSKCFAFTEQCSQASYEEAVLNIEKCDVCLLVLLRYLLHLIGTEAILDAKEQLEMLHAIEKNDSGRRQWAKALNLGNDPPLLYPIVSQMFGVHDKSVIIE
chain 2: MGSVNSSPNEEFETVPDSQISGFDSPLIPTSVGSYFRDDDDDEKVHPNFISDPENDSLNSDEEFSSLENSDLNLSGAKAESGDDFDPILKRTIISKRKAPSNNEDEEIVKTPRKLVNYVPLKIFNLGDSFDDTITTTVAKLQDLKKEILDSPRSNKSIVITSNTVAKSELQKSIKFSGSIPEIYLDVVTKETISDKYKDWHFISKNCHYEQLMDLEMKDTAYSFLFGSSRSQGKVPEFVHLKCPSITNLLVLFGVNQEKCNSLKINYEKKENSRYDNLCTIFPVNKMLKFLMYFYSDDDNDDVREFFLKAFICLILDRKVFNAMESDHRLCFKVLELFNEAHFINSYFEIVDKNDFFLHYRLLQIFPHLQSALLRRRFSEKQGRTETIQQNIIKEFNEFFDCKNYKNLLYFILTMYGSKFIPFGPKCQVTEYFKDCILDISNETTNDVEISILKGILNLFSKIR
notes: Nse5, S. cerevisiae; a native cysteine of it cross-links to Smc5(G1054C); Nse6, S. cerevisiae; also called Nse5/6 loader; loader Nse5/6
